This note sets out measurements from patent publication US20210070847A1 (UNIVERSITY OF FLORIDA RESEARCH FOUNDATION, published 2021).

Changes are numbered by the printed parent chain.

Test [1] addresses T1, recombinant full-length human 2N/3R tau (human, UniProt P10636 2-758).
T1 construct: Expressed in E. coli from pRK172 and purified; also called 3-repeat tau
Put plainly: immunoblot of recombinant tau proteins.

For test [2], the target named is T2, recombinant full-length human 2N/4R tau (human, UniProt P10636 2-758).
T2 construct: Expressed in E. coli from pRK172 and purified; also called 4-repeat tau
T2 sequence (P10636 other isoform, or with tags, fused parts or gaps limits assumed): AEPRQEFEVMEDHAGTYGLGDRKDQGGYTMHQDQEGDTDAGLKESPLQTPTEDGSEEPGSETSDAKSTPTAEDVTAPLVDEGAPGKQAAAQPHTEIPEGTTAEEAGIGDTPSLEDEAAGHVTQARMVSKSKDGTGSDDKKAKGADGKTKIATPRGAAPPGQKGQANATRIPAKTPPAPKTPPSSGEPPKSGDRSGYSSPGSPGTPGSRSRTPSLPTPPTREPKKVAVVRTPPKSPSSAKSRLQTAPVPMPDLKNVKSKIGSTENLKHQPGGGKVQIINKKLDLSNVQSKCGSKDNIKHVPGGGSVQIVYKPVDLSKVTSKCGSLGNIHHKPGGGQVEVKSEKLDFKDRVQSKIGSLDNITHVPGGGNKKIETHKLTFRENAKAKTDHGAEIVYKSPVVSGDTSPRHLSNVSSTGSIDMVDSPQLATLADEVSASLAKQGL
Put plainly: immunoblot of recombinant tau proteins. On the technique in general: In western blotting, separated proteins are transferred to a membrane and probed.

Test [3] concerns the target Aβ (UniProt P05067 672-713). Put plainly: ELISA screening of hybridoma media on coated peptide. On the procedure: (§1) All hybridoma clones were screened for reactivity to K18 by enzyme-linked immunosorbent assay (ELISA). MaxiSorp plates (Thermo Scientific, Waltham, Mass.) or Immulon 4HBX plates (ThermoFisher Scientific, Waltham, Mass.) were coated with 1 μg/ml human recombinant tau or αS proteins or Aβ in PBS or 100 mM sodium bicarbonate and blocked with 5% FBS/PBS or 1% Block ACE in PBS. Media from the hybridomas were applied to plates, which were then incubated at room temperature for 3 hours. Next, the plates were washed with PBS and incubated with goat anti-mouse secondary antibody conjugated to horse radish peroxidase (HRP; Jackson Immuno Research Labs, West Grove, Pa.) for 1 hour at room temperature. Then, plates were washed and TMB substrates (Pierce, Rockford, Ill.) were applied until color changes were observed. Reactions were then quenched with 1M HCl or 85% 0-Phosphoric acid and absorbance was measured at 450 nm. Clones that were positive by ELISA were transferred to larger culture plates as needed. […]
(§2) Mice were immunized with the synthetic peptides corresponding to the MTBD in 4R human tau 244-372 (K18) conjugated to 21-140 αS at the N-terminus or 21-140 αS at the N-terminus and Aβ1-42 at the C-terminus. […] The specificity of these monoclonal antibodies was further determined by probing immunoblots of recombinant full-length human 2N/3R and 2N/4R tau and K18 (4R) tau fragment (FIG. 2). […]
(In general: An ELISA detects its analyte on a solid surface through an enzyme-linked reagent.)

The target in test [4] is recombinant human α-synuclein (human, UniProt P37840 1-140). Put plainly: ELISA screening of hybridoma media on coated protein. On the procedure:
as §1, §2

Test [5] addresses T3, human 1N4R tau with the P301S mutation (expressed in PS19 tau transgenic mice) (human, UniProt P10636 1-758).
T3 construct: Tested in total brain lysates (immunoblot) and spinal cord sections (immunohistochemistry) of PS19 mice; also called human tau in PS19 mice; over-expressed 1N4R human tau in PS19 brain
Put plainly: immunoblot of total mouse brain lysates. On the procedure:
Preparation of total mouse brain protein lysates Tau KO, PS19 Tg or NTg mice were euthanized by CO₂ inhalation and the brains were harvested. Brain tissue was homogenized in 2% SDS/50 mM Tris, pH 7.5 using a probe sonicator and then incubated for 10 min at 100° C. Protein concentrations were determined by BCA assay using BSA as the standard. Sample buffer was added and equal amounts of protein (10 μg) were resolved by SDS-PAGE and analyzed by immunoblot.
To assess the selectivity of these antibodies for human tau, immunoblots of total mouse brain lysates from tau KO, NTg and PS19 tau Tg mice were probed with these antibodies (FIG. 3). All of these antibodies detected human tau in whole brain lysates from PS19 mice. Antibodies 81A11, 83E4 and 94-3A2-2 reacted weakly with endogenous tau in NTg mice. […] All the antibodies were specific for tau as shown using the lysates from tau KO mice. A non-specific band at approximately 30 kDa present in all the lysates was attributed to non-specific binding of the secondary antibody shown with an immunoblot probed only with secondary antibody.

Test [6] addresses T4, recombinant glutathione S-transferase (GST) tagged human tau MTBD R4 (human).
T4 construct: Expressed in E. coli; total bacterial lysates were blotted after SDS-PAGE; also called GST/R4; not shown: glutathione S-transferase (GST) tag encoded by bacterial expression plasmid pGEX-2T; junction
T4 chain: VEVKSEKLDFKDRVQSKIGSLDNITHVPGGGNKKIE
Put plainly: summary of immunoblots of GST-tagged MTBD fragments. From the text: For the generation of recombinant glutathione S-transferases (GST) tagged human MTBD R1-3 (residues 244-336 relative to ON/4R tau), R1 (residues 244-274 relative to ON/4R tau), R3 (residues 306-336 relative to ON/4R tau) and R4 (residues 337-372 relative to ON/4R tau) proteins, the corresponding cDNA sequences were amplified by PCR with the respective oligonucleotides with added BamHI and EcoRI restriction sites and cloned in these sites of bacterial expression plasmid pGEX-2T. These proteins were expressed in E. coli BL21 (DE3)/RIL with isopropyl β-D-1-thiogalactopyranoside induction. The bacteria were lysed with 2% SDS and following the addition of SDS sample buffer equal amounts of total bacterial lysates were resolved by SDS-PAGE and analyzed by immunoblotting.
Mice were immunized with the synthetic peptides corresponding to the MTBD in 4R human tau 244-372 (K18) conjugated to 21-140 αS at the N-terminus or 21-140 αS at the N-terminus and Aβ1-42 at the C-terminus. […] This selectivity for tau was also confirmed by detection of tau pathology by immunohistochemistry of human AD post-mortem brain tissue with abundant tau pathology. […] The specificity of these monoclonal antibodies was further determined by probing immunoblots of recombinant full-length human 2N/3R and 2N/4R tau and K18 (4R) tau fragment (FIG. 2). […]

Test [7] deals with T5, human 0N4R tau with the P301L mutation (expressed in JNPL3 tau transgenic mice) (human, UniProt P10636 1-758).
T5 construct: Tested as inclusions in spinal cord sections of JNPL3 mice; also called tau inclusions of JNPL3 mice
T5 sequence (P10636 other isoform, or with tags, fused parts or gaps P301L P301L limits assumed): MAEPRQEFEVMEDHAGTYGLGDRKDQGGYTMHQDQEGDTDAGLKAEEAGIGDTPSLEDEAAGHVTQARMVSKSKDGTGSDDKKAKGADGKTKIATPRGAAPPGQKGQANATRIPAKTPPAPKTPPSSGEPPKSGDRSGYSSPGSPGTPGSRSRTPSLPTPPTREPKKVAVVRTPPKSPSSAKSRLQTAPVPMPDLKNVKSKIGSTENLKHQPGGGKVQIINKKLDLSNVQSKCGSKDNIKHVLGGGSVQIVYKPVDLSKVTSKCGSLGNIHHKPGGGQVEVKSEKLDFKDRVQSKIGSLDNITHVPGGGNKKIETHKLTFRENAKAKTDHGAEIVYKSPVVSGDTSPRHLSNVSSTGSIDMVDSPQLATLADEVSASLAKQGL
Put plainly: immunohistochemistry of spinal cord sections. On the procedure:
Paraffin embedded tissues from JNPL3 tau transgenic, PS19 tau-transgenic and non-transgenic (NTg) mice were used. All paraffin embedded, formalin fixed human brain tissues from de-identified donors were obtained through a human brain tissue bank. Sequential tissue sections were deparaffinized with xylenes and sequentially rehydrated with graded ethanol solutions (100-70%). Antigen retrieval was performed by incubating sections in a steam bath for 30 minutes. Endogenous peroxidase activity was quenched with 1.5% hydrogen peroxide/0.005% Triton-X-100/Tris-buffered Saline (TBS) for 20 minutes. Sections were blocked with 2.5% horse serum then incubated overnight at 4° C. with primary antibody. Following washing with TBS, sections were incubated with Vector ImmPress anti-mouse IgG peroxidase (Vector Laboratories, Burlingame, Calif., USA) for 30 minutes. Sections were washed with TBS and then developed with 3, 3′diaminobenzidine (DAB kit; Vector Laboratories). Reactions were stopped by immersing the slides in TBS and sections were counterstained with Mayer's hematoxylin (Sigma Aldrich, St. Louis, Mo.). Next, sections were dehydrated with an ascending series of ethanol solutions (70%-100%) followed by xylenes and coverslipped using cytoseal (Thermo Scientific, Waltham, Mass.).
Each of the 83E4, 94-3A2-2, 94-3A6 and 94-4F1 binds R4 and can recognize 3- and 4-repeat tau. […]

T3 sequence (P10636 other isoform, or with tags, fused parts or gaps P301S P301S limits assumed): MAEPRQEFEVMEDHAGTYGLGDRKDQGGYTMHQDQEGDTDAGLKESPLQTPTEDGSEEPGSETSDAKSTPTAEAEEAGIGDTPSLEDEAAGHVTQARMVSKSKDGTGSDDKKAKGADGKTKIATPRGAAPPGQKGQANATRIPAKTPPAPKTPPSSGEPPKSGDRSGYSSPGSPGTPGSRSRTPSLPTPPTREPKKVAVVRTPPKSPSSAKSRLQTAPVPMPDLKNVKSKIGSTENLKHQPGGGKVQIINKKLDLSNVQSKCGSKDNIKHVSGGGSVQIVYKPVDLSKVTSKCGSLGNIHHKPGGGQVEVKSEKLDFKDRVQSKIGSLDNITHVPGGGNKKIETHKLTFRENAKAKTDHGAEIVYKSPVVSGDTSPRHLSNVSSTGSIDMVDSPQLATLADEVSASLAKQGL
Chain of Aβ (P05067 672-713): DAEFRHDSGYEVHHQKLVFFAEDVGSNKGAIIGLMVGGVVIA
T1 sequence (P10636 other isoform, or with tags, fused parts or gaps limits assumed): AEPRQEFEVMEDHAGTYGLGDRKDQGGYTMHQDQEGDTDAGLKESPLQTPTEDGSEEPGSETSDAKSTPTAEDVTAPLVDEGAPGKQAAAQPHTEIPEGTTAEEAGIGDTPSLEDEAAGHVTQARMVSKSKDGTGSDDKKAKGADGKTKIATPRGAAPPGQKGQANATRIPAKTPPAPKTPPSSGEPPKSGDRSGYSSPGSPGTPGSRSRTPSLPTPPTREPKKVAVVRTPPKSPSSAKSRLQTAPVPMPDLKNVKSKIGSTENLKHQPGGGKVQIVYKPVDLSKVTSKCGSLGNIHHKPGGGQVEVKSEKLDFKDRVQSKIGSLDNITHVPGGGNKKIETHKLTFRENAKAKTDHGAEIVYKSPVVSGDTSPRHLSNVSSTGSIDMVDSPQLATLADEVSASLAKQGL

B1: monoclonal antibody 94-3A2-2 (antibody, V domains shown)
VH: QVQLQQSGAELAKPGASVKMSCKASGYTFTTYWMHWIKQRPGQGLEWIGYINPSNDYTEYNQKFKDEATLTVDKSSSTAYMQLNSLISEDSAVYYCAHPAYWGQGTLVTVSS
VL: ENVLTQSPAIMSASPGEKVTMTCSASSSVNYMHWYQQKSGTSPKLWIYDTSKLASGVPGRFSGSGSGNSYSLTISSMEAEDVATYYCFQGSGYPFTFGSGTKLEIKR
Consider B1, for which the binding result in test [1] is recorded as “binds”; in test [2], “binds”; in test [3], “no binding”; in test [4] it was “no binding”; in test [5], “binds”; in test [6], “binds”. Also, the binding result in test [7] is reported as “binds”.

B2: monoclonal antibody 94-3A6 (antibody, V domains shown)
VH: QVQLQQPGTELVKPGASVKLSCKASGYPFTNYWMHWVKQRPGQGLEWIGNINPTNGDTNYNEKFKSKATLTVDKSSSTAYMQLSSLTSEDSAVYYCTRVTYWGQGTTLTVSS
VL: B1 VL with S28N, Y35F, K38E, G40S, F95Y, S99G
For B2, the binding result in test [1] is recorded as “binds”; in test [2] it was “binds”; in test [3], “no binding”; in test [4], “no binding”; in test [5], “binds”; in test [6], “binds”. In test [7], the binding result is given as “binds”.
